Values of other authors, collected in article PMC4815344.

Target: soluble epoxide hydrolase (Homo sapiens) (UniProt P34913)

soluble epoxide hydrolase, sequence (P34913 whole entry): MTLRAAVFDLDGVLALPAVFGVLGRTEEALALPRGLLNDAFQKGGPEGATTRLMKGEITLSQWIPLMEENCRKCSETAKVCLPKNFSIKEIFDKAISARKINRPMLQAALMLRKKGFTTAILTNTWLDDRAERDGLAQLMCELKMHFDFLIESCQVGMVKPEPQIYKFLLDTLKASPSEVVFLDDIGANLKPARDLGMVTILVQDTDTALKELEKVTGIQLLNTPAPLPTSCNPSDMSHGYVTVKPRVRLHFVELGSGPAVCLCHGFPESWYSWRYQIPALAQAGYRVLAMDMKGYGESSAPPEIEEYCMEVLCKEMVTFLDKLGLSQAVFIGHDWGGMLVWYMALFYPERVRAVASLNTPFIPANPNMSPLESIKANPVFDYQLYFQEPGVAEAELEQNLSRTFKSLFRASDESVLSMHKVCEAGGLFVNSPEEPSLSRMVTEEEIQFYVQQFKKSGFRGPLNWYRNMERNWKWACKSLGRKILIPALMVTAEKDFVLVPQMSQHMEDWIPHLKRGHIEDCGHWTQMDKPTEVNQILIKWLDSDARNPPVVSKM

In the case of “soluble epoxide hydrolase (from UniProt P34913)”, the Kd is given as 5 pM.
